Experimental findings from publication PMC8416954 are described below.

The target of assay [1] is ectodomain of human syndecan-4 (natural isoform 2 of SDC-4) (human). In words: SEC-MALS.
Assay [2] has the same target. In words: ion mobility mass spectrometry.

For “ectodomain of human syndecan-4 (natural isoform 2 of SDC-4) (domain or fragment)”, the stoichiometry N in assay [1] and in assay [2] was 2 throughout.

Usually stoichiometry N stands for the number of molecules, sites or subunits per partner or assembly.
